The record followed here is the nanobody polyreactivity screen of Harvey et al. (2022).

This data set in a line: yeast display, Sf9 membrane polyspecificity reagent, FACS + sequencing; frameworks hold sequencing errors. The essentials: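 Galactose-induced (36–48 hours) yeast carrying a synthetic nanobody display library were exposed to 10% biotinylated, detergent-solubilized Sf9 membrane reagent at 4 °C for 1 hour. FACS followed streptavidin microbead enrichment, using low and high (top ~1%) gates for expression (anti-HA) and reagent binding (streptavidin). Colony PCR, MiSeq 2 × 250 sequencing and CDR-length filtering followed. Labels for polyreactivity reflect the gate of origin.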
“QVQLVESGGGLVEAGGSLRLRCAASGISYRYYAMGWYRQAPGKERELVAAITYRGGTTYYADSVKGRFKISRDKEKNTVYLQMNSLKPEDTAVYYCATDVNSYGYYYWGQGTQVTVSS”: the “polyreactivity (PSR sort gate)” value is recorded as “high polyreactivity”.
The same measure for “QVQLVESGGGLVQAGGSLRLSCAASGYTFWYYTMGWYRQATGKERELVATISSNGRRTYYADSVKGRFTISRDNAKNTVYLQMNSLYPEDTAVYYCAAVLYRSWVYTTHDYWGHGTQVTVSS”: “high polyreactivity”; for “QVQLVESGGGLVQAGGSLRLSCAASGYTFGYYAMGWYRQAPGKERELVAAINYSGGRTYYADSVKGRFTISRDNAKNTVYLQMNSLKPEDTAVYYCNAKYGGWSKYWFPRDMDYWGQGTQVTVSS”: “low polyreactivity”.
Regarding “QVQLVESGGGLVQAGGSLRLSCAASGSTFSVNAMGWYRQAPGKEREFVARITWRGGSTYYADSVKRRFTISRDNAKNTVYLPMNSLKPEDTAVYYCAATLRYWWRSSYEDYYWGQGTQVTVSS”, the “polyreactivity (PSR sort gate)” value is “low polyreactivity”.
The same measure for “QVQLVESGGGLVQAGGSLRLSCAASVRTFYFYTMGWYRQSPGKERELVATIRWSAGSTYYADSVKGRFTISRDNAKNTVYLQMNSLKPEDTAVYYCNADPFVYSSWQYGYWGQGTQVTVSS”: “high polyreactivity”; for “QVQLVESGGGLDQAGGSLRLSCAASGRTFGYYTMGWYRQAPWKERELVARINYIGSSTYYADSVKGRFTISRDNAKNTVYLQLNSLKREDTAVYYCNADTARGRSGVRRYYWGQGTQVTVSS”: “high polyreactivity”; for “QVQLVESGGGLVQAGGSLRLSCAASGFIFRSNAMGLYRQAPGKEREFVAAISSRGGSTTYEDSVKGRFTISRDNAKNTVYLQMNSLKPEDTAVYYCARDWYYYPQYRQRYYYWGQGTQVTVSS”: “high polyreactivity”.
As to “QVQLVESGGGLVQAGGSLRLSCAASGFTFIYYAMGWYRQAPGKERELVAAISRVDSTYYADSVKGRFTISSDNAKNTIYLQMNRLKPEDTAVYYFAAASQVRRDHGYWGQGTQVTVSS”, the “polyreactivity (PSR sort gate)” value is “low polyreactivity”.
For the sequence “QVHLVESGGGLVQAGGSLRLSCAASGIIFGRNVMGWYRQAPGKERELVAAISSSGGRTYYADSVKGRFTISRDNAKNTVYLQMNSLNPEVTAVYYCAADEVTKKNSFPRIMDYWGQGTQVTVSS”, the “polyreactivity (PSR sort gate)” value was “high polyreactivity”.
The same measure for “QVQLVESGGGLVQAGGRLRLSCAASGSTFSWYVMGWYRQAPGKERELVAAITRGGGSTYYADSVKGRFTISRDNAKNTVYLQMNSLKPEDTAVYYCNADSNIPDYDYWGQGTQVTVSS”: “low polyreactivity”; for “QVQLVESGGGLVQAGGSLRLSCAASGLTFPSYAMGWYRQAPGKERELVAVISSSGGRTYYADSVKGRFTISRDNAKNTVYLQMNSLIPEDTAVYYCNVGGFLRRRSYDYWGQGTQVTVSS”: “high polyreactivity”.
Take “QVQLVESGGALVQAGGSLRLSCAASGSTIRDYAMGWYRQAPRKERELVAVIDNSGGRTYYADSVKGRFTISRDNAKNTVYLQMNSLKPEDTAVYYCNAYAYPFRGGYWGQGTQVTVSS”: the “polyreactivity (PSR sort gate)” value is recorded as “high polyreactivity”.
For the sequence “QVQLVESGGGLVQAGGSLRLSCAASGSTFYDYDMGWYSQAPGKESELVAAITSGGSTKYADSVKGRFTISRDNAKNTVYLQMNSLKPEDTAVYYCNADSQRPAYWDGYWGQGTKVTVSS”, the “polyreactivity (PSR sort gate)” value is “low polyreactivity”.
The result for “QVQLVESCGGLVQAGGSLRLSCASSGRNFPVKAMGWYRQAPGKERELVAGITWSGDGSTYYADSVKGRFTISRDNAKNTVYLLMNSLKPEDTAVYYCAARLNLQGRYDYWGQGTQVTVSS” reads “low polyreactivity”; that for “QVQLVESGGGLVQAGGSLRLSCAASGSTIGDNAMGWYSQAPGKERELVASISWSGASTYYADSVKGRFTISRDNAKNTVYLQMNSLKPEDTAVYYCAVYYSYYSHLYHLLFYYWGQGTQVTVSS”, “low polyreactivity”.
Regarding “QVQLVESGGGLVQAGGSLRLSCAASGSTFVPNTMGWYRQAPGKDRELVAGITSGGSTYYADSVKGRFTISRDNAKNTVYLQMNSLKPEDTAVYYCAAGKHVTFSYEYRMDYWGQGSQVTVSS”, the “polyreactivity (PSR sort gate)” value is on record as “low polyreactivity”.
As for “QVQLVESGGGLFQAGGSLRLSCASSGFIFVRYAMGWYIQAPGKERELVAGINSGGSTSYADSVKGRFTISRDNAKNSVYLQMNSLKPEDTAVYYCAAAKFRRGTRYYYCGQGTQVTVSS”, the “polyreactivity (PSR sort gate)” value is on record as “high polyreactivity”.
The same measure for “QVQLVESGGGLVQAGGSLRLSCAASGRIFEYIAMGWYRQAPGKERELVAAITSDGSTNDADSVKGRFTISRDNAKNTVYLQMNSLNPEDTAVYYCNTRYSLYTKYAYYDEHDYWGQGTQVTVSS”: “low polyreactivity”; for “QVQLVESGGGLVQAGGSLRLSCAASGFIFRSYAMGWYRQAPGKERELVAAITHTGTTYYADSVKGRFTISRDNAKNSVYLQMNSLKPEDTAVYYCNANYYRTHYVYWGQGTQVTVSS”: “high polyreactivity”; for “QVQLVESGGGLVQAGGSLRLSCAASGSIFVIYAMGWYRQAPGKERELVAAISRSGGRTYYADSVKGRFTISRDNAKTTVYLQMNSLKPEDTAVYYCAAEGSTYQGAPGVYYWGQGTQVTVSS”: “high polyreactivity”.
Consider “QVQLVESGGGLVQAGGSLRLSCAASGSTFKVYAMRWYRQAPGKERELVARISTRVGSTYYADSVKGRFTISRDNAKNSVYLQMNSLKAEDSAVYYCNARWWDPPYYYWGQGTQVTVSS”, for which the “polyreactivity (PSR sort gate)” value is “high polyreactivity”.
On to “QVQLVESGGGLVQAGGRLRLSCAASGRTFTYNAMGWYRQAPGKERELFAAISNTGSTYYADSLKGRFTISRDNAKNTVYLQMNSLKPEDTAVYYCAADRAEFRQDDDPGESNYWGQGTQVTVSS”, for which the “polyreactivity (PSR sort gate)” value is “low polyreactivity”.
The same measure for “QVQLVESGGGLVQAGGSLRLSCAASGRIFAFYAMGWYRQAPGKERELVAAITSGGSTKYADSVNGRFSISRDNAKNTVYLLMNSMKPEDTAVYYCAARYRWQFRSQYDYWGQGTQVTVSS”: “high polyreactivity”; for “QVQLVESGGGIVQSGGSLRLSCAASGSIFQPYAMGWYRQAPGQEREFVAAISRSGGITYYADSVKGRFTISRDNAKNTVYLQMYSLKPEDTAVYYCATGRQVVRSYSEGDYWGQGTQVTLSS”: “low polyreactivity”.
For the sequence “QVQLVESGGGLVQAGGSLRLSCAASGRIFVYYAMGWYRQAPGKERELVAAMNAGGSTNYADSVKGRFTISRDNAKNNVYLQMYSLKPEDTAVYYCAAVRRSRYSYRGYYWGQGTQVTVSS”, the “polyreactivity (PSR sort gate)” value is recorded as “high polyreactivity”.
As to “QVQLVESGGGLVQAGGSLRLSCAASGRIFAYYAMGWYRQPPGKERELVAAISRSGVSTYYADSVKGRFTISRDNAKNTVYLQMNSLKPEDTAVYYCAKTLSPEGVPYDYWGQGTQVTVSS”, the “polyreactivity (PSR sort gate)” value is recorded as “low polyreactivity”.
The result for “QVQLVESGGGLVQAGGSLRLSCAASGSTFPTYAMGWYRQAPGKERELVADITWSGGSTYYADSVKGRFTISRDNAKNTVYLQMNSLKPEDTAVYYCNAAHRKGMYYWGQGTQVTVSS” reads “high polyreactivity”; that for “QVQLVESGGGLVQAGGSLRLSCAASGGIFVSYAMGWYRQAPGNERELVAAITSGGGTSYADSVKGRFTISRDNAKNTVYLQMNSLKPEDTAVYYCNADGYLAERFVIRLDEYRDYDYWGQGTQVTVSS”, “low polyreactivity”.
With “QVQLVESGGGLVQAGGSLRLSCAASGFTFWRYAMGWYRQAPGKERELVAAISYSGGSTYYADSVKGRFTISRDYAKNTVYLQMNSLKPEDTAVYYCNAETGYGVYRTKYGYWGQGTQVTVSS”, the “polyreactivity (PSR sort gate)” value is given as “high polyreactivity”.
The same measure for “QVQLVESGGGLVQAGGSLRLSCAASGSIFYAYAMGWYRQAPGKERQLVAAIRSSDSRTYYADSVKGRFTISRDNAKNTVYLQMNSLKPEDTGVYYCDADGSRKVKFDYWGQGTQVTVSS”: “high polyreactivity”; for “QVQLVESGGGLVQAGGSLRLSCAASGSIFGANTMGWYRQAPGKERELGAAISKRGGSTYYADSVKGRFTISRDNAKNTVYLQMNSLKPEDTAVYYCNATPRYLRQYVDPNWGYDYWGQGTQVTVSS”: “low polyreactivity”.
For “QVQLVESGGGLVQAGGSLRLSCAASGSTFPDYVMGRYRQAPGKERELVAAFSSIGGSTYYADSVKGRFTISRDNAKNTVYLQMNCLKPEDTAVYYCAAENSYFYPFDYWGQGTQVTVSS”, the “polyreactivity (PSR sort gate)” value is “low polyreactivity”.
In the case of “QVQLVESGGGLVQAGGSHRISCAASGSTFPGYPMGWYRQAPGKERELVAAGGSTYYADSVKGRFTISRDNAKNTVYLQINSLKPEDTAVYYCAATWGSVQKGTYYYWGQGTQVTVSS”, the “polyreactivity (PSR sort gate)” value is “low polyreactivity”.
The same measure for “QVQLVESGGGLVQAGCSLRLSCAASGSIFGWYAMGWYRQAPGTERELVAAITLIGGSTYYADSVKGRFTISRDNAKNTVYLQMNSLKPEDTAVYYCNAVWYWGDMDYWGQGTQVTVSS”: “low polyreactivity”.
On to “QVQLVESGGGLVQAGGSLRLSCAASGFIFPYYAMGLYRQAPGKEREMVAAITFSATRTYYADSVKGRFTISRDNAKNTVYLQMNSLKPEDTADYYCKARGGVYGSYFEFNYWGQGSQVTVSS”, for which the “polyreactivity (PSR sort gate)” value is “low polyreactivity”.
Regarding “QVQLVESGGGLVQAGGSLRLSCAASGSTFRYYAMGWYRQAPGKERELVAAITFDGGTTSYADSVKGRFTISRDNAKNTVYLQMNSLKPEDTAVYYCAREGRTYWSKSISPYWRYGYWGQGTQVTVSS”, the “polyreactivity (PSR sort gate)” value is on record as “high polyreactivity”.
In the case of “QVQLVESAGGLVQAGGSLSIICAASGFTFYGYTMGWYRQAPGKERELVAAITSDGDTNYADSVKGRFTISRDNAKNTVYLQMISLKPVDTAVYYCNADPGYYFYWWPGDYWGQGTQLTVSS”, the “polyreactivity (PSR sort gate)” value is reported as “low polyreactivity”.
For “QVQLVESGGGLVQAGGSLRLSCAASGSTFDDNGMGWYRKAPGKERELVAGINSAGSTYYADSVKGRFTISRDNAKNTVYLQMNSLKPEDTAVYYCARRFLLKDRTKRAYGSWGQGTQVTVSS”, the “polyreactivity (PSR sort gate)” value is reported as “low polyreactivity”.
As to “QVQLVESGGGLVQAGGSLRLSCAASGRIFRGYTMGWYRQAPGKEREFVAAITANGGRTYYADSVKGRFTISRDNAKNTVYLKMNSLKPEDTAVYYCNARTYTYRGSFDYWVQGTQVTVSS”, the “polyreactivity (PSR sort gate)” value is on record as “high polyreactivity”.
The result for “QVQHVESGGGLGQAGGSLRLSCAASGRIFDEYALGSYRQAPGKERELVAAISLIGASTYYADSVKGRFTISRDTAKNTVYLQMNSQHPEDTAVYYCAAEYAFVVPGYYREVYYWGEGTQVTVSS” reads “low polyreactivity”.
